Target: T1, HLA-DR15 (DRB1*15:02) (human)
T1 construct: whole, on cells; Expressed on mouse fibroblast L-cells (L-DR15) or on donor APCs; also called L-DR15
Experiment: concluded from IFN-gamma ELISPOT with peptide-pulsed L-DR15 cells and HLA-blocking mAbs; no direct binding assay
Protocol: The immune response of Th cells to APCs pulsed with peptides and proteins were assessed by IFN-gamma ELISPOT assays (Human IFN-gamma ELISPOT kit, BD Biosciences) as described previously (Tomita Y, et al. Cancer Sci; 102: 697-705.). Briefly, the frequency of peptide-specific CD4⁺ T cells producing IFN-gamma per 3×10⁴ bulk CD4⁺ T cells upon stimulation with peptide-pulsed PBMCs (3×10⁴), or 1×10⁴ bulk CD4⁺ T cells upon stimulation with peptide-pulsed L-cells (5×10⁴/well) expressing HLA-DR was analyzed. The frequency of cells producing IFN-gamma per 1×10⁵ CTLs upon stimulation with peptide-pulsed T2 cells (2×10⁴/well) or C1R-A2402 cells (2×10⁴/well) was also analyzed. Alternatively, 5×10³ protein-loaded DCs were co-cultured with 2×10⁴ CD4⁺ T cell clones/well. The protein-loaded mature DCs were prepared from positively isolated CD14⁺ cells (day 0) as described previously (Harao M, et al. Int J Cancer 2008; 123: 2616-25.). On day 5, the DCs were cultured in the presence of the recombinant KIF20A (50 micro-g/ml) and OK432. The protein-loaded mature DCs were harvested on day 7, washed and used as stimulator in IFN-gamma ELISPOT assays. […]

binding result: binds
B1: KIF20A (60-84) (peptide)
peptide: DSMEKVKVYLRVRPLLPSELERQED
notes: Synthetic long peptide (purity >90%), pulsed on PBMCs, DCs or L-cell transfectants; also called KIF20A (60-84) LP; KIF20A (60-84) peptide

Reference: patent US20150190489A1 (ONCOTHERAPY SCIENCE, published 2015)
